Laboratory results taken from paper PMC2723102 (2009).
Where no end group is shown, it is not given here. [ ]: non-standard residue; d: D form. pY = N[C@@H](Cc1ccc(OP(=O)(O)O)cc1)C(=O)O; pT = C[C@@H](OP(=O)(O)O)[C@H](N)C(=O)O

T1: GST-X11β (domain)
T1 chain: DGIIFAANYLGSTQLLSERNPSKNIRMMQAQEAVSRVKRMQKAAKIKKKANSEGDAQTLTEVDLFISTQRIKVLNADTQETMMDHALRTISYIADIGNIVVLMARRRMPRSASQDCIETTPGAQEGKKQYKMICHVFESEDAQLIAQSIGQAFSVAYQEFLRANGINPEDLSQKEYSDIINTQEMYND

T2: GST-NUMB-p71 (region with the PTB domain)
T2 chain: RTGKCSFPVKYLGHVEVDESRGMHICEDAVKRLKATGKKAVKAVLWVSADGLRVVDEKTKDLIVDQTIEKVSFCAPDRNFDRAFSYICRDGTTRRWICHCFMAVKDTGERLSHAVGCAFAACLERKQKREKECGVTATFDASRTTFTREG


Legend:
Experiment in all cases: SPR
[1] = target: GST-Grb2 domain (GST-SH2 recombinant protein)
GST-X11β (domain) = target: T1, GST-X11β (domain)
[2] = target: T2, GST-NUMB-p71 (region with the PTB …)

Chain of GST-Grb2 domain (GST-SH2 recombinant protein) (chain, as listed by the source): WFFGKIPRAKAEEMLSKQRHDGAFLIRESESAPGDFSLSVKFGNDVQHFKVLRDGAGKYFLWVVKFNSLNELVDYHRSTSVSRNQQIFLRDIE

Row | Binder | Kd [1] [nM] | Kd (GST-X11β (domain)) [nM] | Kd [2] [nM]
1 | VMLKKKQYTSIHHGVVEVDAAV[pT]PEERHLSKMQQNGYENPTYKFFEQMQN (also: strep-tag, position not given here) [strep-tag AID peptide phosphorylated on Thr-668] | – | 33.5 | –
2 | VMLKKKQYTSIHHGVVEVDAAVTPEERHLSKMQQNG[pY]ENPTYKFFEQMQN (also: strep-tag, place not given here) [strep-tag AID peptide phosphorylated on Tyr-682] | 2.57 | – | –

Continued by falling Kd (GST-X11β (domain)), values first:

Row | Kd [1] [nM] | Kd (GST-X11β (domain)) [nM] | Kd [2] [nM] | Binder
3 | 0.413 | 13.1 | – | VMLKKKQYTSIHHGVVEVDAAV[pT]PEERHLSKMQQNG[pY]ENPTYKFFEQMQN (also: strep-tag, place not given here) [strep-tag AID peptide phosphorylated on Thr-668 and Tyr-682]
4 | – | 8.48 | 105 | VMLKKKQYTSIHHGVVEVDAAVTPEERHLSKMQQNGYENPTYKFFEQMQN (also: strep-tag, position not given here) [strep-tag AID peptide (APP intracellular domain, last 50 amino acids of APP), non-phosphorylated]
